Data: the Human Domainome abundance scans (Beltran et al. 2025)
± gives the uncertainty stated by the source.

B1: Apoptosis-associated speck-like protein containing a CARD, residues 114 to 194; numbered along this chain, Q9ULZ3 (parent)
chain: FIDQHRAALIARVTNVEWLLDALYGKVLTDEQYQAVRAEPTNPSKMRKLFSFTPAWNWTCKDLLLQALRESQSYLVEDLER
B2: POU domain, class 4, transcription factor 3, residues 185 to 256; numbered along this chain, Q15319 (parent)
chain: RELEAFAERFKQRRIKLGVTQADVGAALANLKIPGVGSLSQSTICRFESLTLSHNNMIALKPVLQAWLEEAE

Variants of: B1
Assay: abundance fitness (aPCA) (normalised: wild type 0, dead -1); higher = more abundant; growth selection in yeast, the domain comes from the species named
Details: Homo sapiens

Row | Variant | abundance fitness
1 | C60H | 0.185 ± 0.13
2 | D78N | -0.291 ± 0.098
3 | H5W | -0.381 ± 0.071
4 | T41F | -1.2 ± 0.31
5 | Q34P | -0.817 ± 0.13
6 | Q34L | -0.295 ± 0.064
7 | S71H | -0.109 ± 0.12
8 | E70N | -0.322 ± 0.16
9 | V36W | -0.74 ± 0.095
10 | F50D | -1.06 ± 0.48
11 | L75C | -0.839 ± 0.28
12 | A7V | -0.249 ± 0.058
13 | P43V | -0.096 ± 0.053
14 | G25C | -0.582 ± 0.12
15 | E80S | -0.204 ± 0.058
16 | L79N | -0.688 ± 0.38
17 | L19T | -0.912 ± 0.17
18 | S51N | -0.806 ± 0.22
19 | V27R | -0.909 ± 0.096

Row | Variant | abundance fitness
20 | Q4W | -0.802 ± 0.15
21 | P40Y | -0.633 ± 0.19
22 | P40F | -0.912 ± 0.28
23 | P40M | -0.896 ± 0.24
24 | N42D | -0.221 ± 0.099
25 | N42H | -0.624 ± 0.14
26 | Q72W | -0.615 ± 0.082
27 | A22G | -0.4 ± 0.056
28 | L65G | -0.611 ± 0.052
29 | D3T | -0.907 ± 0.25
30 | L63R | -0.385 ± 0.059
31 | L23V | -0.611 ± 0.074
32 | L9A | -0.901 ± 0.12
33 | W56I | -0.434 ± 0.16
34 | L68Q | -0.876 ± 0.45
35 | A38C | -0.297 ± 0.087
36 | R12H | -0.219 ± 0.12
37 | Y24S | -0.319 ± 0.056
38 | F1V | -0.908 ± 0.15

Variants of: B2
Assay: as above
Details: Homo sapiens

Row | Variant | abundance fitness
39 | W67F | -0.06 ± 0.065
40 | W67I | -0.752 ± 0.17
41 | W67C | -0.496 ± 0.22
42 | W67H | -0.795 ± 0.11
43 | W67T | -0.697 ± 0.11
44 | W67S | -0.684 ± 0.14
45 | W67Q | -1.02 ± 0.24
46 | W67L | -0.549 ± 0.052
47 | W67Y | -0.09 ± 0.087
48 | W67N | -0.491 ± 0.16
49 | W67P | -0.618 ± 0.1
50 | N56W | 0.101 ± 0.21
51 | N56F | -0.628 ± 0.078
52 | N56K | -0.109 ± 0.24
53 | N56T | -0.588 ± 0.43
54 | N56D | -0.355 ± 0.41
55 | N56G | -0.035 ± 0.41
56 | N56L | 0.105 ± 0.13
57 | N56I | -0.157 ± 0.21
58 | N56S | 0.089 ± 0.13
59 | N56Y | -0.096 ± 0.28
60 | N56C | -0.036 ± 0.25
61 | R46Q | -0.011 ± 0.077
62 | R46S | 0.024 ± 0.06
63 | R46N | 0.094 ± 0.081
64 | R46E | 0.025 ± 0.17

Row | Variant | abundance fitness
65 | R46L | -0.184 ± 0.056
66 | R46I | -0.806 ± 0.16
67 | R46F | -0.519 ± 0.13
68 | R46Y | -0.106 ± 0.18
69 | R46P | -1.17 ± 0.14
70 | R46G | 0.125 ± 0.097
71 | R46D | 0.096 ± 0.13
72 | R46H | -0.056 ± 0.091
73 | R46K | 0.055 ± 0.074
74 | R46M | -0.184 ± 0.1
75 | R46T | -0.661 ± 0.083
76 | R46W | -0.334 ± 0.14
77 | A66Q | 0.042 ± 0.2
78 | A66K | 0.079 ± 0.12
79 | A66T | -0.074 ± 0.18
80 | A66R | -0.133 ± 0.08
81 | A66P | -0.65 ± 0.14
82 | A66E | 0.053 ± 0.09
83 | A66D | -0.162 ± 0.24
84 | A66L | -0.048 ± 0.33
85 | A66G | -0.013 ± 0.092
86 | A66V | -0.429 ± 0.2
87 | I58F | 0.078 ± 0.14
88 | I58T | -0.044 ± 0.072
89 | I58M | 0.153 ± 0.12
90 | I58E | 0.071 ± 0.34

Row | Variant | abundance fitness
91 | I58D | 0.215 ± 0.45
92 | I58P | -1.06 ± 0.26
93 | I58A | -0.262 ± 0.32
94 | I58H | -0.033 ± 0.1
95 | I58K | -0.058 ± 0.12
96 | I58N | -0.049 ± 0.05
97 | I58Y | -0.123 ± 0.082
98 | I58L | 0.094 ± 0.065
99 | I58Q | -0.055 ± 0.072
100 | I58S | -0.034 ± 0.055
101 | L64F | -0.412 ± 0.06
102 | L64Y | -0.322 ± 0.069
103 | L64D | -0.737 ± 0.084
104 | L64I | -0.402 ± 0.098
105 | L64E | -0.788 ± 0.049
106 | L64R | -0.818 ± 0.055
107 | L64C | -0.717 ± 0.084
108 | L64S | -0.768 ± 0.076
109 | L64V | -0.425 ± 0.024
110 | L64M | -0.17 ± 0.034
111 | L64N | -0.758 ± 0.11
112 | L64G | -0.836 ± 0.037
113 | L64K | -0.678 ± 0.066
114 | E69P | -0.672 ± 0.058
115 | E69H | -0.332 ± 0.15
116 | E69R | -0.065 ± 0.033

Row | Variant | abundance fitness
117 | E69V | -0.046 ± 0.037
118 | E69L | -0.097 ± 0.027
119 | E69F | -0.2 ± 0.06
120 | E69T | -0.075 ± 0.04
121 | E69M | -0.041 ± 0.048
122 | E69K | -0.041 ± 0.05
123 | E69Y | -0.059 ± 0.069
124 | E69Q | -0.091 ± 0.061
125 | E69G | -0.194 ± 0.049
126 | E69D | -0.039 ± 0.078
127 | E69W | -0.232 ± 0.048
128 | E69I | -0.106 ± 0.059
129 | E69C | 0.006 ± 0.073
130 | E69A | 0.04 ± 0.048
131 | E69N | -0.06 ± 0.11
132 | S53G | -0.061 ± 0.046
133 | S53A | 0.025 ± 0.071
134 | S53P | 0.042 ± 0.09
135 | S53T | -0.208 ± 0.11
136 | S53Q | -0.403 ± 0.14
137 | S53R | -0.229 ± 0.054
138 | S53K | -0.222 ± 0.093
139 | S53H | -0.174 ± 0.12
140 | S53E | -0.065 ± 0.084
141 | M57S | -0.156 ± 0.14
142 | M57R | -0.524 ± 0.089

Row | Variant | abundance fitness
143 | M57A | -0.173 ± 0.11
144 | M57L | -0.045 ± 0.42
145 | M57Q | -0.359 ± 0.12
146 | M57G | -0.634 ± 0.15
147 | M57V | -0.259 ± 0.19
148 | M57T | -0.174 ± 0.096
149 | T51R | 0.028 ± 0.058
150 | T51K | 0.111 ± 0.12
151 | T51E | -0.146 ± 0.29
152 | T51L | -0.13 ± 0.056
153 | T51A | -0.041 ± 0.056
154 | T51G | -0.174 ± 0.077
155 | T51M | 0.096 ± 0.17
156 | T51Q | -0.074 ± 0.11
157 | T51S | 0.056 ± 0.059
158 | T51H | -0.201 ± 0.21
159 | T51V | -0.112 ± 0.073
160 | T51C | -0.121 ± 0.12
161 | T51F | -0.578 ± 0.31
162 | T51P | -1.19 ± 0.27
163 | T51W | -0.406 ± 0.036
164 | L60Q | -0.376 ± 0.24
165 | L60K | -0.859 ± 0.3
166 | L60G | -0.638 ± 0.5
167 | L60A | -0.289 ± 0.17
